PMC3402909 (Biopolymers, 2011)
Blank lines part the entries; values can stand above or below the molecule they belong to. Where a SMILES comes first, the peptide text is derived from it.

Assays:
[1] = target: Sos1 WT peptide 1 PEP (Homo sapiens) (UniProt Q07889); settings: cited from earlier work
Grb2-Sos1 association = Grb2-Sos1 association (Rattus norvegicus, UniProt P62994); assay: Blockade of Grb2-Sos1 association in PC12 cell lysates; assay type: biochemical, human; settings: 1 μM peptide, PC12 cell lysate
Grb2 SH3 N-domain = assay: other fluorescence titration

Molecule: Grb2 N-terminal SH3 (from UniProt P62993)
- Kd [1]: 39 µM

- inhibition of Grb2-Sos1 association (Grb2-Sos1 association): little inhibition
Molecule: CC(=O)N1CCC[C@H]1C(=O)N[C@@H](CCCNC(=N)N)C(=O)N[C@H](C(=O)N1CCC[C@H]1C(=O)N1CCC[C@H]1C(=O)N1CCC[C@H]1C(=O)N1CCC[C@H]1C(=O)N[C@H](C(=O)N[C@@H](CCCNC(=N)N)C(=O)N[C@@H](CCCNC(=N)N)C(N)=O)C(C)C)C(C)C [Peptide 13, Ac-P-R-V-P-P-P-P-V-R-R-NH2] (Ac-PRVPPPPVRR-NH2)

- Kd (Grb2 SH3 N-domain): 173 µM
B1: scrambled peptide Ac-P-R-V-P-P-P-P-V-R-R-NH2 (13) (peptide)
peptide: Ac-PRVPPPPVRR-NH2
